In series [1] the target is T1, UL84-6xHis (Human cytomegalovirus, UniProt P16727 1-586).
T1 sequence: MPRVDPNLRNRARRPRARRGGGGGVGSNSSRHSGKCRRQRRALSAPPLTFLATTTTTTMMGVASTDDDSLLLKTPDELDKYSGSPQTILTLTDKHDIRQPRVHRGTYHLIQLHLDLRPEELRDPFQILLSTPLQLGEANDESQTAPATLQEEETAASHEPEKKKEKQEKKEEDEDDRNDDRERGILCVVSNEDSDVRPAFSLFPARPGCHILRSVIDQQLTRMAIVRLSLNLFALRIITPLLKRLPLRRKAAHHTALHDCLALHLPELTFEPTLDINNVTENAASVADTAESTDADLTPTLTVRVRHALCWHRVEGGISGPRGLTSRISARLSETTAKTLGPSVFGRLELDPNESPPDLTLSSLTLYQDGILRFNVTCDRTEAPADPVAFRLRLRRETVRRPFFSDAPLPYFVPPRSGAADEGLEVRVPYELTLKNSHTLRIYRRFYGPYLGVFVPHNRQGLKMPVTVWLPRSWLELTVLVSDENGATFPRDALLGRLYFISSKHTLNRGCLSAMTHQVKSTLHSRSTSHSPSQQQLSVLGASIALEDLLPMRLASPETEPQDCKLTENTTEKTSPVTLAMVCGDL
As to the kind of experiment: pull-down.

Series [2] deals with T2, 6xHis-IE2(87-579) (Human cytomegalovirus, UniProt Q6SWP7 87-579).
T2 sequence: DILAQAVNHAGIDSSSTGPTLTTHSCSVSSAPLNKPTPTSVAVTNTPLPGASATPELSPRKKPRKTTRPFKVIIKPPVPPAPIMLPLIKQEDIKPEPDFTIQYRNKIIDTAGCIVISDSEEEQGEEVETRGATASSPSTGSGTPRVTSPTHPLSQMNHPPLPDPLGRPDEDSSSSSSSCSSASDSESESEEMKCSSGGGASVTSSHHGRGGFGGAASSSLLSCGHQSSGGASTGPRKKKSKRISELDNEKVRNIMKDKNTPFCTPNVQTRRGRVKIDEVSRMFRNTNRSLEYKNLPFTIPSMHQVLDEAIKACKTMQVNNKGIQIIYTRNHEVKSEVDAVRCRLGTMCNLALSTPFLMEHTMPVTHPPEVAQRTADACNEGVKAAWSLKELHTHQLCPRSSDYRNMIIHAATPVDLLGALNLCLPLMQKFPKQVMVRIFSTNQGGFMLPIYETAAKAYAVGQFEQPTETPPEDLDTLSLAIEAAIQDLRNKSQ
As to the kind of experiment: pull-down.

Series [3] has as its target T3, 6xHis-UL44(1-290) (Human cytomegalovirus, UniProt P16790 1-290). As to the kind of experiment: pull-down.
Series [4] addresses T1, UL84-6xHis. As to the kind of experiment: pull-down immunoblot.
For series [5], the target named is T2, 6xHis-IE2(87-579). As to the kind of experiment: pull-down immunoblot.
Series [6] addresses T3, 6xHis-UL44(1-290). As to the kind of experiment: pull-down immunoblot.
In series [7] the target is T1, UL84-6xHis. Description: ELISA.
For series [8], the target named is T2, 6xHis-IE2(87-579). As to the kind of experiment: ELISA.
For series [9], the target named is T3, 6xHis-UL44(1-290). As to the kind of experiment: ELISA.

T3 sequence (P16790 1-290): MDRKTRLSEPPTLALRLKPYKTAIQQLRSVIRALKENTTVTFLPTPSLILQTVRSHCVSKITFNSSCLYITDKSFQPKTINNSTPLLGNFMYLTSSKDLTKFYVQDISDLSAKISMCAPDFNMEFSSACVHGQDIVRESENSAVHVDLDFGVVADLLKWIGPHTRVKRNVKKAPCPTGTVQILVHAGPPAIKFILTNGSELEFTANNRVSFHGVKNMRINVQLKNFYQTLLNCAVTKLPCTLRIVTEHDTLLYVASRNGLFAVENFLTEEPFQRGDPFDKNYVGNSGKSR

For AAGGAGAGAGGTGAGGAGGAAAGGTT (ssDNA) [oriG4-1m], the binding result with UL84-6xHis [1], with 6xHis-IE2(87-579) [2] and in the series with 6xHis-UL44(1-290) [3] was “no binding” throughout.

Regarding AAGGGAAAGGGTGAGGGGGGGGGGTT (structured_DNA) [oriG4-1 L1], the binding result with UL84-6xHis [4], in the series with 6xHis-IE2(87-579) [5] and with 6xHis-UL44(1-290) [6] was “binds” throughout.

Regarding AAGGGGGGGGGTGAGGGGGGGGGGTT (structured_DNA) [oriG4-1], the dissociation constant (Kd) in the series with UL84-6xHis [7] amounted to 0.0142 µM; in the series with 6xHis-IE2(87-579) [8], 0.123 µM; with 6xHis-UL44(1-290) [9] it was 0.0255 µM.

Source of the values: paper PMC11350156.
